In patent US20200392228A1 (PANDION OPERATIONS, published 2020):
Like-named read-outs stand apart in the source and are kept apart here.

T1: human MAdCAM protein (human, UniProt Q13477 19-317)
T1 construct: used for Octet, SPR, ELISA and plate capture; construct not described; also called recombinant human MAdCAM; soluble monomeric human MAdCAM
T1 sequence (looked up): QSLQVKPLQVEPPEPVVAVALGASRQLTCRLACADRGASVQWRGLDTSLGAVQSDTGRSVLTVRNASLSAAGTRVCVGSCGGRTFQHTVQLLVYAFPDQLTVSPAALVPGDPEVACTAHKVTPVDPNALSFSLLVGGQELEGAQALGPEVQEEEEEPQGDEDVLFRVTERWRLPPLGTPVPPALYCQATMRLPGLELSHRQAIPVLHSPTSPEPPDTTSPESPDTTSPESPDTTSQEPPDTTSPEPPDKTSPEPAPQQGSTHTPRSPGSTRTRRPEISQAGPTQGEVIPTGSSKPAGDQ

T2: mouse MAdCAM protein (mouse, UniProt Q61826 22-365, limits assumed)
T2 construct: also called recombinant mouse MAdCAM-1; mMAdCAM-1
T2 sequence (looked up): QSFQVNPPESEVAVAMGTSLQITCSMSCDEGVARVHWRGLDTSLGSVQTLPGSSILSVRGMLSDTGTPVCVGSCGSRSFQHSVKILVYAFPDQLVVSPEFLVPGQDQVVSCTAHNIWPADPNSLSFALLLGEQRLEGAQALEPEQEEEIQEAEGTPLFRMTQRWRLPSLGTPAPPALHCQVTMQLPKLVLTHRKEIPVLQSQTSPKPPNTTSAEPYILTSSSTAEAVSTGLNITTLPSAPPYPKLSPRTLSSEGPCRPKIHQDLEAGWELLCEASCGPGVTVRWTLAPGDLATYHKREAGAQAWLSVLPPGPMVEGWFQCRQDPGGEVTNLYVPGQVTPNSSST

T3: human MAdCAM expressed on cells (human, UniProt Q13477 19-382)
T3 construct: whole, on cells; also called MADCAM1
T3 sequence (looked up): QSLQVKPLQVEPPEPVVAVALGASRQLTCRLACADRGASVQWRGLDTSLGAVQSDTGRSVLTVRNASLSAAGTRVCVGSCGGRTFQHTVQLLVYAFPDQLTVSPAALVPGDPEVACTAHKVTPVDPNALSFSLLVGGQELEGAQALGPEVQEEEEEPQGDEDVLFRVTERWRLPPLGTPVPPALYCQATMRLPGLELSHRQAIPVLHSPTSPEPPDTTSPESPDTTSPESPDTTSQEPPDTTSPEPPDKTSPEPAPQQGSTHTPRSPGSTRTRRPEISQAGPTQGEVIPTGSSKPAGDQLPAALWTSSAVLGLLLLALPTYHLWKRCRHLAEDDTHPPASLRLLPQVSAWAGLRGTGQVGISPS

T4: mouse MAdCAM expressed on cells (mouse, UniProt Q61826 22-405)
T4 construct: whole, on cells
T4 sequence (looked up): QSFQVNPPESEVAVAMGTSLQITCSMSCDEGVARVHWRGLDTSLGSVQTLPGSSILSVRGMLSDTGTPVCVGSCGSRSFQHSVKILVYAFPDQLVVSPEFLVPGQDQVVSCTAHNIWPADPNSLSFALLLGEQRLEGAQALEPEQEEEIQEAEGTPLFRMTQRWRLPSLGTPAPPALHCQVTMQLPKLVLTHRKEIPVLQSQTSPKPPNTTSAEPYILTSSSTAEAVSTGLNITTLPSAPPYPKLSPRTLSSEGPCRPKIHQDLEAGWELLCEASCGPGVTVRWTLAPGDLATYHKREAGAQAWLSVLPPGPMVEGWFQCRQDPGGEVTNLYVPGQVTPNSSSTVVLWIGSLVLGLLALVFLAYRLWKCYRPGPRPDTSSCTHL


What was measured:
[1] = molecular target: T1, human MAdCAM protein; assay: Octet
[2] = molecular target: T2, mouse MAdCAM protein; assay: Octet
[3] = molecular target: T3, human MAdCAM expressed on cells; assay: cell binding
[4] = molecular target: T4, mouse MAdCAM expressed on cells; assay: cell binding
[5] = molecular target: T1, human MAdCAM protein; assay: Octet; remark: listed apart in the source
[6] = molecular target: T2, mouse MAdCAM protein; assay: Octet; remark: listed apart in the source
[7] = molecular target: T3, human MAdCAM expressed on cells; assay: cell binding; remark: listed apart in the source
[8] = molecular target: T4, mouse MAdCAM expressed on cells; assay: cell binding; remark: listed apart in the source

Row | binding result [1] | binding result [2] | binding result [3] | binding result [4] | binding result [5] | binding result [6] | binding result [7] | binding result [8] | Binder
1 | binds | binds | binds | binds |  |  |  |  | MAdCAM antibody Clone ID 79 of Table 7 (IgG) (antibody, V domains shown, IgG format) VH: EVQLLESGGGLVKPGGSLRLSCAASGFTFDDYAMHWVRQAPGKGLEWVASITSSSAFIDYAASVKGRFTISRDDSKNTLYLQMNSLKTEDTAVYYCARERVDWNSYFDLWGRGTLVTVSS VL: EIVMTQSPATLSVSPGERATLSCRASQGISNSYLAWYQQKPGQAPRLLIYGASTRATGIPARFSGSGSGTEFTLTISSLQSEDFAVYYCQQYYTYPPTFGPGTKVDIK
2 | binds | no binding | binds | no binding |  |  |  |  | MAdCAM antibody Clone ID 22 of Table 7 (IgG) (antibody, V domains shown, IgG format) VH: EVQLLESGGGLVQPGGSLRLSCAASGFTFDDYAMHWVRQAPGKGLEWVSGISWNSGSIGYADSVKGRFTISRDNSKNTLYLQMNSLRAEDTAVYYCAKDIVAAGHYYYGMDVWGQGTTVTVSS VL: DIQMTQSPSSLSASVGDRVTITCQASQDISNYLNWYQQKPGKAPKLLIYDASNLETGVPSRFSGSGSGTDFTLTISSLQPEDFATYYCQQSYSTPLTFGGGTKVEIK
3 | binds | no binding | binds | no binding |  |  |  |  | MAdCAM antibody Clone ID 23 of Table 7 (IgG) (antibody, V domains shown, IgG format) VH: EVQLLESGGGLVQPGGSLRLSCAASGFTFDDYAMHWVRQAPGKGLEWVSYIDTSSSHLYYADSVKGRFTISRDNSKNTLYLQMNSLRAEDTAVYYCARDEAAAGYYGMDVWGQGTTVTVSS VL: DIQMTQSPSSLSASVGDRVTITCQAGQDISNYLNWYQQKPGKAPKLLIYDASNLETGVPSRFSGSGSGTDFTLTISSLQPEDFATYYCQQTYSTPITFGQGTKLEIK
4 | binds | no binding | binds | no binding |  |  |  |  | MAdCAM antibody Clone ID 17 of Table 7 (IgG) (antibody, V domains shown, IgG format) VH: QVQLVQSGAEVKKPGSSVKVSCKASGYTFTDYHIHWVRQAPGQGLEWMGGIVPRSGSTTYAQKFQGRVTITADESTSTAYMELSSLRSEDTAVYYCAKDESSGWYYFDYWGQGTLVTVSS VL: DIVMTQSPLSLPVTPGEPASISCRSSQSLLHSNGYNYLDWYLQKPGQSPQLLIYSAYNRASGVPDRFSGSGSGTDFTLKISRVEAEDVGVYYCMQALQTPLTFGQGTKVEIK
5 |  |  |  |  | binds | binds | binds | binds | MAdCAM antibody Clone ID 2 of Table 6 (scFv) (scFv) scFv: QVQLVQSGAEVKKPGASVKVSCKASGYPFIGYYLHWVRQAPGQGLEWMGIINPSGGSTSYAQKFQGRVTMTRDTSTSTVYMELSSLRSEDTAVYYCAREGRLSYGMDAWGQGTLVTVSSGGGGSGGGGSGGGGSGGGGSDIQMTQSPSSLSASVGDRVTITCRASQSISSYLAWYQQKPGKAPKLLIYGASTLESGVPSRFSGSGSGTDFTLTISSLQPEDFATYYCQQTWGPPFTFGQGTKLEIK
6 |  |  |  |  | binds | binds | binds | binds | MAdCAM antibody Clone ID 59 of Table 6 (scFv) (scFv) scFv: EVQLLESGGGLVQPGGSLRLSCAASGFTFSDFWMHWVRQAPGKGLEWISYISGDSGYTNYADSVKGRFTISRDNSKNTLYLQMNSLRAEDTAVYYCARDRPYYYYMDVWGKGTTVTVSSGGGGSGGGGSGGGGSGGGGSDIQMTQSPSSLSASVGDRVTITCRASQSVSRSLAWYQQKPGKAPKLLIYAASSLQSGVPSRFSGSGSGTDFTLTISSLQPEDFATYYCQQYKSYPVTFGQGTKVEIK
7 | binds | no binding | binds | no binding |  |  |  |  | MAdCAM antibody Clone ID 6 of Table 7 (IgG) (antibody, V domains shown, IgG format) VH: EVQLLESGGGLVQPGGSLRLSCAASGFTFNNYAFHWVRQAPGKGLEWVSRINSYGTSTTYADSVKGRFTISRDNSKNTLYLQMNSLRAEDTAVYYCAREGPVAGYWYFDLWGQGTLVTVSS VL: DIQMTQSPSSLSASVGDRVTITCRASQIIGTNLAWYQQKPGKAPKLLIYGASSLQSGVPSRFSGSGSGTDFTLTISSLQPEDFATYYCQQSYRLPFTFGQGTKVEIK
8 |  |  |  |  | binds | binds | binds | binds | MAdCAM antibody Clone ID 4 of Table 6 (scFv) (scFv) scFv: QVQLVQSGAEVKKPGASVKVSCKASGGTFSSYAISWVRQAPGQGLEWMGSINPSGDTTSYAQKFQGRVTMTRDTSTSTVYMELSSLRSEDTAVYYCAKDKAQWLVGYFDYWGQGTLVTVSSGGGGSGGGGSGGGGSGGGGSDIQMTQSPSSLSASVGDRVTITCQASQDISNSLNWYQQKPGKAPKLLIYAASSLQSGVPSRFSGSGSGTDFTLTISSLQPEDFATYYCQQSYSSVITFGQGTKVEIK
9 |  |  |  |  | binds | binds | binds | binds | MAdCAM antibody Clone ID 63 of Table 6 (scFv) (scFv) scFv: EVQLLESGGGLVKPGGSLRLSCAASGFTFDDYAMHWVRQAPGKGLEWVASITSSSAFIDYAASVKGRFTISRDDSKNTLYLQMNSLKTEDTAVYYCARERVDWNSYFDLWGRGTLVTVSSGGGGSGGGGSGGGGSGGGGSEIVMTQSPATLSVSPGERATLSCRASQGISNSYLAWYQQKPGQAPRLLIYGASTRATGIPARFSGSGSGTEFTLTISSLQSEDFAVYYCQQYYTYPPTFGPGTKVDIK
10 | binds | no binding | binds | no binding |  |  |  |  | MAdCAM antibody Clone ID 20 of Table 7 (IgG) (antibody, V domains shown, IgG format) VH: EVQLLESGGGLVQPGGSLRLSCAASGFTFSDSAMHWVRQAPGKGLEWVSAISGSGSTIYYADSVKGRFTISRDNSKNTLYLQMNSLRAEDTAVYYCVSDIAVAGHWYFDLWGRGTLVTVSS VL: DIQMTQSPSSLSASVGDRVTITCRASQSISTFLNWYQQKPGKAPKLLIYAASRLEGGVPSRFSGSGSGTDFTLTISSLQPEDFATYYCQQANSFPLTFGPGTKVDIK
11 | binds | no binding | binds | no binding |  |  |  |  | MAdCAM antibody Clone ID 46 of Table 7 (IgG) (antibody, V domains shown, IgG format) VH: EVQLLESGGGLVQPGGSLRLSCAASGFSFSSYTMNWVRQAPGKGLEWVSFITSSSRTIYYADSVKGRFTISRDNSKNTLYLQMNSLRAEDTAVYYCARDRRGDYGDSWYFDLWGRGTLVTVSS VL: EIVMTQSPATLSVSPGERATLSCRASQSVRNYLAWYQQKPGQAPRLLIYGASTRATGIPARFSGSGSGTEFTLTISSLQSEDFAVYYCQQYGSSPLTFGGGTKVEIK
12 | binds | binds | binds | binds |  |  |  |  | MAdCAM antibody Clone ID 75 of Table 7 (IgG) (antibody, V domains shown, IgG format) VH: EVQLLESGGGLVQPGGSLRLSCAASGFTFSDFWMHWVRQAPGKGLEWISYISGDSGYTNYADSVKGRFTISRDNSKNTLYLQMNSLRAEDTAVYYCARDRPYYYYMDVWGKGTTVTVSS VL: DIQMTQSPSSLSASVGDRVTITCRASQSVSRSLAWYQQKPGKAPKLLIYAASSLQSGVPSRFSGSGSGTDFTLTISSLQPEDFATYYCQQYKSYPVTFGQGTKVEIK
